Literature values in paper PMC2910649.

Molecular target: VEGFR2 (Homo sapiens) (UniProt P35968)
UniProt P35968, sequence (P35968 20-1356): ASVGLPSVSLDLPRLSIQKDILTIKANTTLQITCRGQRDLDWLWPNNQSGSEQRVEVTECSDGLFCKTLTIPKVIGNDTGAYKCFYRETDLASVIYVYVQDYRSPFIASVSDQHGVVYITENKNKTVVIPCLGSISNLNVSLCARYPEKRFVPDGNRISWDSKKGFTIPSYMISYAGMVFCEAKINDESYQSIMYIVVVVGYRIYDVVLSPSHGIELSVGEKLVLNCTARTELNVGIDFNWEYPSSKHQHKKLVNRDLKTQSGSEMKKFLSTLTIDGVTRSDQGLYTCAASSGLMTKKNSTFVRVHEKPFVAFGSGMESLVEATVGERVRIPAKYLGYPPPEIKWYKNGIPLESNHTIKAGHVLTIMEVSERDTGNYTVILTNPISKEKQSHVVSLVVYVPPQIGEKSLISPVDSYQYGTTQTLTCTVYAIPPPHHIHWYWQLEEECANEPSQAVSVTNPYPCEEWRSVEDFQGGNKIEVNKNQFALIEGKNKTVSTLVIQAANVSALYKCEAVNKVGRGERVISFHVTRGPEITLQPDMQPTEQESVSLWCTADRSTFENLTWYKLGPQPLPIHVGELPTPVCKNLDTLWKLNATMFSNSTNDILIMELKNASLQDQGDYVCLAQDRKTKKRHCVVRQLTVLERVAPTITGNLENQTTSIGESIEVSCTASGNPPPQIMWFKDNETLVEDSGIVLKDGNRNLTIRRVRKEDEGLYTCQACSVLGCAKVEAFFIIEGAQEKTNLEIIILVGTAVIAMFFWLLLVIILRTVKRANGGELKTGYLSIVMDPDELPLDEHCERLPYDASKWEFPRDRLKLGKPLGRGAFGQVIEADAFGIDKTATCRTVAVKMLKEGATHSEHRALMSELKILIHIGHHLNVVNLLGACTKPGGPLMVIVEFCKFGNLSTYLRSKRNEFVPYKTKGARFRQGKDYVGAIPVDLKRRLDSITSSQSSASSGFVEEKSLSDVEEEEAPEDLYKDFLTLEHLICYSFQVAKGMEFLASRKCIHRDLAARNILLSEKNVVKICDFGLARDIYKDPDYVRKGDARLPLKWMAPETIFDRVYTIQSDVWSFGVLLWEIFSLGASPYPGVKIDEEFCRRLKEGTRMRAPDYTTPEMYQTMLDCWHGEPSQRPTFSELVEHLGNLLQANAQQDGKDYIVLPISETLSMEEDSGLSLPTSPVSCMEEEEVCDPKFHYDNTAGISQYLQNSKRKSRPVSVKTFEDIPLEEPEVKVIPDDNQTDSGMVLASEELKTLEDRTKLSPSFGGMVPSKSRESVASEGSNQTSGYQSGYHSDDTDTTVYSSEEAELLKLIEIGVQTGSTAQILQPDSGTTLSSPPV

VEGF-A165 (from UniProt P15692)
Kd: 0.21 nM
